In PMC2911377:

Molecular target: amino terminal enhancer of Split (AES), HA tagged (human) (UniProt Q08117)
UniProt Q08117, sequence (Q08117 whole entry): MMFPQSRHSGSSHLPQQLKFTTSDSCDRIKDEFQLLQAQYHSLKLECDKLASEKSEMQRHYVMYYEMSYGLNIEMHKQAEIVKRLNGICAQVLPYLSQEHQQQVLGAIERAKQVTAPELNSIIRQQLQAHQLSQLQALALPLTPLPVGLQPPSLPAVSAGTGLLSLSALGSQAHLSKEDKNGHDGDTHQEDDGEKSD

“GFP-LRP6-ICD-myc-NLS (wild type LRP6-ICD with a nuclear localization signal) (domain or fragment)” was tested, and the repression of AES mediated TOP (TOPflash, TCF/LEF-1 luciferase reporter) transcription in HEK 293T cells co-transfected with AES-HA and GFP-LRP6-ICD-NLS, 24 hrs was 138%.
